This note sets out measurements from the PETadex activity labels (doi:10.1038/s41467-025-61599-z).

Substrate in one data set: pNPB
The experiment in a line: Proxy for plastic degradation [Absorbance @ 430nm] (min⁻¹). The note with it: pH 8; part of the chain shown.

Substrate in data set [1]: PET
The experiment in a line: Proxy for plastic degradation [Released monomer concentration (HPLC/LC-MS) (MHET+TPA)]. The note with it: pH 9, part of the chain shown.

Substrate in data set [2]: PET
The experiment in a line: Proxy for plastic degradation [kcat/Km (catalytic efficiency)] (mM⁻¹s⁻¹). To be noted: pH 8; part of the chain shown.

Data set [3] is described as follows: Proxy for plastic degradation [Released monomer concentration (HPLC/LC-MS) (TPA+MHET)]. To be noted: part of the chain shown.
Substrate in data set [4]: PET
The description is as above. The note with it: part of the chain shown.

For the sequence “AGFEKGPDPTTASVTADRGSYDIAQVDVPKGSGTGFADGTIYY”, the “Proxy for plastic degradation” value with pNPB turned out to be 16200; in the data set with PET [1] (30 °C) it was 14.6 µM; in the data set with PET [1] (40 °C) it was 14.2 µM; with PET [1] (50 °C), 14.1 µM; in the data set with PET [1] (55 °C), 14.4 µM; in the data set with PET [1] (60 °C) it was 15 µM.
As for “CFGGGDPDPSPEGQALGVPGDFEICSYEANLENDGYASARMTYPCDLS”, the “Proxy for plastic degradation” value with pNPB is 24400; in the data set with PET [1] (30 °C), 9.91 µM; in the data set with PET [1] (40 °C), 9.79 µM; in the data set with PET [1] (50 °C), 11 µM; with PET [1] (55 °C), 10.1 µM; with PET [1] (60 °C), 10.5 µM.
In the case of “DEIGQAPTAANITGDGSFSTSSSAIFGQSGFGGGTAYYPNTAGKYPVVAF”, the “Proxy for plastic degradation” value in the data set with PET [2] turned out to be 0.263; with pNPB, 34300; with PET [1] (30 °C), 65.5 µM; with PET [1] (40 °C), 759 µM; in the data set with PET [1] (50 °C) it was 3600 µM; with PET [1] (55 °C) it was 596 µM. In addition, the “Proxy for plastic degradation” value was 167 µM with PET [1] (60 °C); 65 µM in data set [3] (30 °C); 759 µM in data set [3] (40 °C); 167 µM in data set [3] (60 °C); 65.5 µM in the data set with PET [4] (30 °C); 759 µM with PET [4] (40 °C). Besides, the “Proxy for plastic degradation” value with PET [4] (55 °C) was found to be 167 µM; in the data set with PET [4] (60 °C) it was 104 µM; with PET [4] (pH 9, 50 °C, 24 h) it was 742 µM; with PET [4] (pH 9, 50 °C, 48 h) it was 1640 µM; with PET [4] (pH 9, 50 °C, 72 h) it was 3600 µM.
As for “DPWDAPGPYATAVQIGAVNTLYYPRDIASSPRRHPVIVWGNGT”, the “Proxy for plastic degradation” value with pNPB turned out to be 21900; in the data set with PET [1] (30 °C), 13 µM; with PET [1] (40 °C) it was 13.4 µM; in the data set with PET [1] (50 °C), 14.2 µM; in the data set with PET [1] (55 °C) it was 13.4 µM; with PET [1] (60 °C), 14.1 µM.
For the sequence “ESETTAAAVSSRYYEETGPHAVTVEQGGPDHTLYYPSDLGAGGT”, the “Proxy for plastic degradation” value in the data set with pNPB amounted to 32300; with PET [1] (30 °C), 13.9 µM; with PET [1] (40 °C), 14.7 µM; with PET [1] (50 °C) it was 10.6 µM; in the data set with PET [1] (55 °C) it was 15.5 µM; with PET [1] (60 °C), 15.3 µM.
As for “FGNNGGGGGGEDNVFAEPGDFDVVTEPGGRDCTIFRPEQLGDDH”, the “Proxy for plastic degradation” value was found to be 23500 with pNPB; 14 µM in the data set with PET [1] (30 °C); 13.8 µM in the data set with PET [1] (40 °C); 15.8 µM with PET [1] (50 °C); 14.4 µM in the data set with PET [1] (55 °C); 14.9 µM in the data set with PET [1] (60 °C).
On to “GDPPAVRTVPAAAAAPVDWSKTGPHQVKVDKADAHTIYRPSDLG”, for which the “Proxy for plastic degradation” value with pNPB was found to be 44800; with PET [1] (30 °C), 12.7 µM; in the data set with PET [1] (40 °C), 12.6 µM; with PET [1] (50 °C) it was 15.7 µM; with PET [1] (55 °C), 16 µM; with PET [1] (60 °C) it was 16.4 µM.
In the case of “LDSPYQRGPDPTEASVKAIAGPFAVDQVKATGHTGFGSGTIFYP”, the “Proxy for plastic degradation” value with pNPB stood at 41400; with PET [1] (30 °C), 11.2 µM; with PET [1] (40 °C) it was 22.8 µM; with PET [1] (50 °C), 44.2 µM; in the data set with PET [1] (55 °C), 26.1 µM; in the data set with PET [1] (60 °C), 19.7 µM.
On to “NNPGGGGGTAPDTGTGFPGVSNFSASGSFATTSGSAGASCTVFRPST”, for which the “Proxy for plastic degradation” value with pNPB was 25400; with PET [1] (30 °C), 8.31 µM; with PET [1] (40 °C), 9.03 µM; with PET [1] (50 °C), 9.57 µM; with PET [1] (55 °C), 9.09 µM; in the data set with PET [1] (60 °C) it was 9.47 µM.
With “QDNSDGRYRPEGRTFARGAANLFDDRLFEARTYVTGTDVA”, the “Proxy for plastic degradation” value was 49500 with pNPB; 15.4 µM in the data set with PET [1] (30 °C); 15.5 µM in the data set with PET [1] (40 °C); 15.5 µM in the data set with PET [1] (50 °C); 16.6 µM with PET [1] (55 °C); 16.1 µM in the data set with PET [1] (60 °C).
In the case of “QTNPYARGPNPTAASLEASAGPFTVRSFTVSRPSGYGAGTVYY”, the “Proxy for plastic degradation” value was found to be 24900 with pNPB; 17.3 µM in the data set with PET [1] (30 °C); 64.7 µM with PET [1] (40 °C); 46.9 µM with PET [1] (50 °C); 27.4 µM with PET [1] (55 °C); 17.4 µM with PET [1] (60 °C).
As to “TPEFKPQPGPLSIKSAAAISFRVEDQAKDLQIRVTYPDGPGPWP”, the “Proxy for plastic degradation” value in the data set with pNPB is 16800; with PET [1] (30 °C), 15.7 µM; in the data set with PET [1] (40 °C) it was 12.8 µM; in the data set with PET [1] (50 °C), 17.3 µM; with PET [1] (55 °C) it was 17.3 µM; with PET [1] (60 °C), 17.2 µM.
Take VTKGPDPSAAEVAKVTGSYAVTETKVDDAASTKFGPATV: the “Proxy for plastic degradation” value with pNPB amounted to 31400; in the data set with PET [1] (30 °C), 15 µM; with PET [1] (40 °C), 12.8 µM; with PET [1] (50 °C), 15.3 µM; with PET [1] (55 °C), 16.2 µM; with PET [1] (60 °C) it was 16.3 µM.
